The text below walks through data of article PMC7854685, “Histone Parylation factor 1 contributes to the inhibition of PARP1 by cancer drugs” (Nature Communications, 2021).

Assay [1] has as its target T1, Poly-(ADP-ribose) polymerase 1 (PARP1), wild type, labelled with Alexa488, bound to p18mer DNA (UniProt P09874 1-1014, Alexa488 C4 maleimide label (extent of labeling typically 50-100%)).
T1 construct: Poly-(ADP-ribose) polymerase 1 (PARP1), wild type; In the assay premixed with p18mer double-stranded DNA (0.2 uM); the DNA is no protein chain; also called PARP1 - p18mer complex; 488-labeled PARP1
Description: FRET or BRET; as a3 but with olaparib (1 uM): Alexa647-HPF1 titrated into Alexa488-PARP1 (0.2 uM) premixed with p18mer DNA (0.2 uM) and olaparib; binding buffer. The following applies: both partners purified. For orientation: In BRET a luciferase serves as donor, and the signal depends on an acceptor being close.

Assay [2] has as its target T1, Poly-(ADP-ribose) polymerase 1 (PARP1), …. Description: FRET or BRET; Alexa647-HPF1 (0.6-10,000 nM) titrated into Alexa488-PARP1 (0.2 uM) premixed with p18mer DNA (0.2 uM) and DMSO (control, no olaparib); binding buffer 50 mM Tris-HCl pH 8.0, 50 mM NaCl, 1 mM MgCl2, 0.1 mM EDTA, 0.01% IGEPAL. The following applies: both partners purified.

T1 sequence (P09874 whole entry): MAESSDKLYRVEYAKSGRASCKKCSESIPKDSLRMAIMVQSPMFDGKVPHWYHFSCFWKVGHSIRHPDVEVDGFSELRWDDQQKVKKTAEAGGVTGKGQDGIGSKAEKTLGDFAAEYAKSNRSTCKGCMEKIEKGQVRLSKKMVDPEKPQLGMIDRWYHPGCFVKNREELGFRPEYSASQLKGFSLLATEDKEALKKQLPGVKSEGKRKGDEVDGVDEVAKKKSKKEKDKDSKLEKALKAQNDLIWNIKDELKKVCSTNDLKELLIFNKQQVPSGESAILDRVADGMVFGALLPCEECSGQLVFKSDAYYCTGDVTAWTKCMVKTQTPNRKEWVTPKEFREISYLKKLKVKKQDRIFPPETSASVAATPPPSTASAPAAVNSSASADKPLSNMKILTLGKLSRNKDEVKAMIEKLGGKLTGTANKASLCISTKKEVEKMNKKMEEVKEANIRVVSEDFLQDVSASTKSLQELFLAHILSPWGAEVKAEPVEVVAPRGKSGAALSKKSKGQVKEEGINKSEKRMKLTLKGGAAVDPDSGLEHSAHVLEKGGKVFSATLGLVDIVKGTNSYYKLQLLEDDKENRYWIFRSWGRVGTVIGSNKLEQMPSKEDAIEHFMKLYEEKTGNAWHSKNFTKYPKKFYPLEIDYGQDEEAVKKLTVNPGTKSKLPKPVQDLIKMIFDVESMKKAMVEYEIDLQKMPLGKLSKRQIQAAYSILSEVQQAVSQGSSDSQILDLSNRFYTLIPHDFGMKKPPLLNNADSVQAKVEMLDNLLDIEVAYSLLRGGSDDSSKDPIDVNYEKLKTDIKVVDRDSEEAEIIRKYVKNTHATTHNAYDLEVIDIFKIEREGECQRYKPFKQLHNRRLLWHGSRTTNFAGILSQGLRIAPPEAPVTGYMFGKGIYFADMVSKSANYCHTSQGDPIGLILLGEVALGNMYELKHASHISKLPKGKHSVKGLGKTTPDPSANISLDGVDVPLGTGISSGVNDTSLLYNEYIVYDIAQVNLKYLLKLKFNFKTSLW

B1: Histone PARylation factor 1 (HPF1), labelled with Alexa647 (natural protein)
chain: LRKEVENHYKLSLPEDFYHFWKFCEELDPEKPSDSLSASLGLQLVGPYDILAGKHKTKKKSTGLNFNLHWRFYYDPPEFQTIIIGDNKTQYHMGYFRDSPDEFPVYVGINEAKKNCIIVPNGDNVFAAVKLFLTKKLREITDKKKINLLKNIDEKLTEAARELGYSLEQRTVKMKQRDKKVVTKTFHGAGLVVPVDKNDVGYRELPETDADLKRICKTIVEAASDEERLKAFAPIQEMMTFVQFANDECDYGMGLELGMDLFCYGSHYFHKVAGQLLPLAYNLLKRNLFAEIIEEHLANRSQENIDQLAA
modifications: Alexa647 C2 maleimide label (extent of labeling typically 50-100%)
notes: Histone PARylation factor 1 (HPF1); also called wild-type protein
By Kd is commonly meant the constant that tells how readily two partners part at equilibrium. As to B1, the figures for the Kd in assay [1] and in assay [2] were 1200 nM and 3800 nM, respectively.
